{
  "source": "patent US20220281998A1",
  "about": "(AZUSAPHARMA SCIENCES, published 2022)",
  "key": {"[1]": {"target": "human EGFR on human cancer cell lines (HCT116, A-431, NCI-H1975, HT-29, RKO) (human, UniProt P00533 25-1210)", "assay": "cell-based or functional assay"}, "[2]": {"target": "T1, recombinant biotinylated HER2 (manufactured by ACROBiosystems) (human, UniProt P04626 23-652, biotinylated (site not stated))", "T1 construct": "also called human HER2", "assay": "sandwich ELISA: immobilised human CD3E/CD3D heterodimer, BsAb, detection with biotinylated HER2"}, "[3]": {"target": "T2, human CD3E/CD3D heterodimer recombinant protein (manufactured by ACROBiosystems) (human, UniProt P07766 23-126; P04234 22-105)", "T2 construct": "Bought reagent, immobilised on ELISA plates", "T2 sequence (P07766 23-126 limits assumed, chain 1 of 2)": "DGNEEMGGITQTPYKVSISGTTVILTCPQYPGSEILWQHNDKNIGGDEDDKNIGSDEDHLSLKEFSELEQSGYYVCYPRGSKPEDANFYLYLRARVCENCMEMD", "T2 sequence (P04234 22-105 limits assumed, chain 2 of 2)": "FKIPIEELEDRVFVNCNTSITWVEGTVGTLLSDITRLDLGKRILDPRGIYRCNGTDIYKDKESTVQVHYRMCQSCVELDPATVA", "assay": "ELISA, immobilised human CD3E/CD3D heterodimer, 10-1000 ng/mL BsAb, absorbance rose with concentration"}},
  "data": [
    {"binder": "LH31 diabody-type BsAb (EGFR×CD3 diabody-type BsAb derived from DUM-31H strain) (bispecific antibody, Heterodimer of polypeptides 1 and 2, secreted by Bifidobacterium longum 105-A carrying pLH31-L5, purified through the His tag; also called LH31 polypeptide 1 + LH31 polypeptide 2 with SP50-L5) chain 1: ATLTPDIQMTQSPSSLSASVGDRVTITCRASQDIRNYLNWYQQKPGKAPKLLIYYTSRLESGVPSRFSGSGSGTDYTLTISSLQPEDFATYYCQQGNTLPWTFGQGTKVEIKAAGGGGSEVQLVESGGGLVQPGGSLRLSCAASGFTLSGDWIHWVRQAPGKGLEWLGEISAAGGYTDYADSVKGRFTISADTSKNTAYLQMNSLRAEDTAVYYCARESRVSFEAAMDYWGQGTLVTVSSAAAAEQKLISEEDLNLGGGMRGSHHHHHH chain 2: ATLTPDIQMTQSPSSLSASVGDRVTITCRASQDLATDVAWYQQKPGKAPKLLIYSASFLYSGVPSRFSGSGSGTDFTLTISSLQPEDFATYYCQQSEPEPYTFGQGTKVEIKAAGGGGSEVQLVESGGGLVQPGGSLRLSCAASGYSFTGYTMNWVRQAPGKGLEWVALINPYKGVSTYNQKFKDRFTISVDKSKNTAYLQMNSLRAEDTAVYYCARSGYYGDSDWYFDVWGQGTLVTVSSAAAEQKLISEEDLNLGGGMRGSHHHHHH", "values": [
      {"measurement": "EC50: concentration that reduced the viability of HCT116 cells to 50% (T-LAK:HCT116 5:1, 24 h)", "setting": "[1]", "value": 0.032, "unit": "nM"},
      {"measurement": "binding result", "setting": "[2]", "value": "no binding"},
      {"measurement": "binding result", "setting": "[3]", "value": "binds"}
    ]}
  ]
}
